± gives the uncertainty stated by the source.
Test: self-splicing fitness, log relative to wild type (ln ratio); higher = more splicing; Tetrahymena group I intron in knt gene, E. coli kanamycin selection, DiMSum; sequences stand for … in CUCUCU…GGAGGGAAAAGUUAUCAGGCAUGCACCUGGUAGCUAGUCUUUAAACCAAUAGAUUGCAUCGGUUUAAAAGGCAAGACCGUCAAAUUGCGGGAAAGGGGUCAACAGCCGUUCAGUACCAAGUCUCAGGGGAAACUUUGAGAUGGCCUUGCAAAGGGUAUGGUAAUAAGCUGACGGACAUGGUCCUAACCACGCAGCCAAGUCCUAAGUCAACAGAUCUUCUGUUGAUAUGGAUGCAGUUCACAGACUAAAUGUCGGUCGGGGAAGAUGUAUUCUUCUCAUAAGAUAUAGUCGGACCUCUCCUUAAUGGGAGCUAGCGGAUGAAGUGAUGCAACACUGGAGCCGCUGGGAACUAAUUUGUAUGCGAAAGUAUAUUGAUUAGUUUUGGAGUACUCGUGGUCG
Method in brief: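 Fitness was computed with DiMSum as the error-weighted combination of replicate fold changes, kanamycin versus none, each normalised to wild type. The library randomised all eight intron nucleotides of the P1ex region, with the intron placed in the knt kanamycin-resistance gene on pET-22b(+) in E. coli BL21(DE3). Six replicate transformations were grown overnight at 37°C or 30°C on LB agar with or without 25 μg/mL kanamycin, plus 100 μg/mL carbenicillin, 50 μM IPTG and 0.2% rhamnose. Pooled colonies were amplicon-sequenced on an Illumina HiSeq 2500.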

Row | Sequence | self-splicing fitness (ln) (30 °C) | self-splicing fitness (ln) (37 °C)
1 | AGAUAGCAAUAUUACGCCGA | -1.89 ± 0.3 | -0.973 ± 0.3
2 | AGAUAGCAAUAUUACGCCUG | -1.13 ± 0.12 | -0.496 ± 0.13
3 | AGAUAGCAAUAUUACGCGGG | -1.66 ± 0.13 | -1.68 ± 0.15
4 | AGAUAGCAAUAUUACGCUAA | -1.46 ± 0.15 | -0.455 ± 0.15
5 | AGAUAGCAAUAUUACGCUAG | -3.21 ± 0.4 | -2.24 ± 0.42
6 | AGAUAGCAAUAUUACGCUGC |  | -1.26 ± 0.34
7 | AGAUAGCAAUAUUACGGCAA | 0.243 ± 0.16 | -0.127 ± 0.19
8 | AGAUAGCAAUAUUACGGCAC | -1.52 ± 0.16 | -0.639 ± 0.23
9 | AGAUAGCAAUAUUACGGCCC | -0.127 ± 0.19 | -0.606 ± 0.23
10 | AGAUAGCAAUAUUACGGCGU | -0.0254 ± 0.091 | 0.663 ± 0.1
11 | AGAUAGCAAUAUUACGGCUU | -0.346 ± 0.11 | -0.141 ± 0.097
12 | AGAUAGCAAUAUUACGGGUG | -2.83 ± 0.2 | -1.88 ± 0.21
13 | AGAUAGCAAUAUUACGGUGG | -1.66 ± 0.12 | -2.23 ± 0.16
14 | AGAUAGCAAUAUUACGUCCC | -1.36 ± 0.2 | 0.133 ± 0.32
15 | AGAUAGCAAUAUUACGUCGA | -0.721 ± 0.13 | 0.375 ± 0.13
16 | AGAUAGCAAUAUUACGUCGC | -3.24 ± 0.39 | -1.21 ± 0.23
17 | AGAUAGCAAUAUUACGUCUU | -2.52 ± 0.14 | -2.07 ± 0.17
18 | AGAUAGCAAUAUUACGUUAG | -4.56 ± 0.31 | -0.345 ± 0.15
19 | AGAUAGCAAUAUUACGUUCA | -0.78 ± 0.13 | -0.5 ± 0.15
20 | AGAUAGCAAUAUUACGUUUC | -3.56 ± 0.29 | 
21 | AGCAAGCAAUAUUACGACAU | -0.211 ± 0.011 | 0.0321 ± 0.032
22 | AGCAAGCAAUAUUACGAGAG | -3.11 ± 0.2 | -2.42 ± 0.25
23 | AGCAAGCAAUAUUACGAGGA | -2.86 ± 0.17 | -2.29 ± 0.2
24 | AGCAAGCAAUAUUACGAUGU | -1.92 ± 0.068 | -0.392 ± 0.076
25 | AGCAAGCAAUAUUACGAUUG | -4.19 ± 0.17 | -1.91 ± 0.11
26 | AGCAAGCAAUAUUACGCCUU | -1.24 ± 0.1 | 0.351 ± 0.11

Row | Sequence | self-splicing fitness (ln) (30 °C) | self-splicing fitness (ln) (37 °C)
27 | AGCAAGCAAUAUUACGCGGU | -3.33 ± 0.16 | -1.66 ± 0.17
28 | AGCAAGCAAUAUUACGGCCA | -0.0326 ± 0.088 | -0.0437 ± 0.12
29 | AGCAAGCAAUAUUACGGCGU | -0.229 ± 0.078 | 0.0744 ± 0.1
30 | AGCAAGCAAUAUUACGGGCA | -0.263 ± 0.071 | 0.111 ± 0.084
31 | AGCAAGCAAUAUUACGGUGG | -2.65 ± 0.1 | -2.32 ± 0.15
32 | AGCAAGCAAUAUUACGUCAA | -1.76 ± 0.13 | -1.13 ± 0.11
33 | AGCAAGCAAUAUUACGUCCC | -0.545 ± 0.1 | -0.16 ± 0.13
34 | AGCAAGCAAUAUUACGUCUG | -2.22 ± 0.09 | -1.15 ± 0.095
35 | AGCAAGCAAUAUUACGUGAA | -2.21 ± 0.068 | -1.95 ± 0.11
36 | AGCAAGCAAUAUUACGUGGC | -2.83 ± 0.15 | -3.3 ± 0.21
37 | AGCAAGCAAUAUUACGUGUU | -3.17 ± 0.18 | -2.64 ± 0.17
38 | AGCAAGCAAUAUUACGUUCG | -2.66 ± 0.084 | -1.44 ± 0.09
39 | AGCCAGCAAUAUUACGAAAU | -3.02 ± 0.11 | -2.17 ± 0.13
40 | AGCCAGCAAUAUUACGACCG | -3.83 ± 0.32 | -1.89 ± 0.24
41 | AGCCAGCAAUAUUACGACGC | -1.66 ± 0.14 | -0.853 ± 0.16
42 | AGCCAGCAAUAUUACGACGU | -0.356 ± 0.068 | -0.487 ± 0.085
43 | AGCCAGCAAUAUUACGAGUA | -3.06 ± 0.22 | -1.5 ± 0.16
44 | AGCCAGCAAUAUUACGAUGU | -2.62 ± 0.16 | -1.32 ± 0.13
45 | AGCCAGCAAUAUUACGAUUC | -2.67 ± 0.22 | -2.49 ± 0.3
46 | AGCCAGCAAUAUUACGCGCC | -2.18 ± 0.15 | -1.74 ± 0.23
47 | AGCCAGCAAUAUUACGCGGU | -2.93 ± 0.28 | -2.29 ± 0.33
48 | AGCCAGCAAUAUUACGCUGC | -3.09 ± 0.34 | -2.59 ± 0.26
49 | AGCCAGCAAUAUUACGGAAC | -2.72 ± 0.18 | -3.1 ± 0.3
50 | AGCCAGCAAUAUUACGGAUC | -2.03 ± 0.1 | -1.25 ± 0.13
51 | AGCCAGCAAUAUUACGGCAA | -0.763 ± 0.067 | -0.321 ± 0.075
52 | AGCCAGCAAUAUUACGGCUU | -4.74 ± 0.41 | -2.89 ± 0.21

Row | Sequence | self-splicing fitness (ln) (30 °C) | self-splicing fitness (ln) (37 °C)
53 | AGCCAGCAAUAUUACGGGUC | -3.28 ± 0.18 | -2.13 ± 0.2
54 | AGCCAGCAAUAUUACGGUGA | -1.82 ± 0.091 | -1.2 ± 0.089
55 | AGCCAGCAAUAUUACGUUCG | -3.46 ± 0.19 | -2.48 ± 0.22
56 | AGCGAGCAAUAUUACGAAAG |  | -0.117 ± 0.3
57 | AGCGAGCAAUAUUACGAAUA | -3.75 ± 0.46 | -3.32 ± 0.37
58 | AGCGAGCAAUAUUACGACUC | -2.06 ± 0.21 | -1.3 ± 0.24
59 | AGCGAGCAAUAUUACGCUAG | -3.66 ± 0.29 | -2.04 ± 0.27
60 | AGCGAGCAAUAUUACGCUCG | -3.5 ± 0.27 | -2.34 ± 0.49
61 | AGCGAGCAAUAUUACGCUGU | -3.15 ± 0.32 | -2.08 ± 0.22
62 | AGCGAGCAAUAUUACGCUUC | -3.16 ± 0.24 | -2.02 ± 0.28
63 | AGCGAGCAAUAUUACGGACC | -0.957 ± 0.13 | -1.08 ± 0.18
64 | AGCGAGCAAUAUUACGGAGU | -3.99 ± 0.28 | -3.15 ± 0.3
65 | AGCGAGCAAUAUUACGGGAG | -2.82 ± 0.2 | -2 ± 0.29
66 | AGCGAGCAAUAUUACGGUCG | -2.52 ± 0.12 | -1.86 ± 0.13
67 | AGCGAGCAAUAUUACGUGGA | -2.95 ± 0.22 | -2.81 ± 0.16
68 | AGCGAGCAAUAUUACGUUCG | -2.14 ± 0.37 | -2.67 ± 0.38
69 | AGCGAGCAAUAUUACGUUCU | -2.13 ± 0.14 | -0.892 ± 0.14
70 | AGCUAGCAAUAUUACGAAGG | -4.22 ± 0.39 | -1.82 ± 0.26
71 | AGCUAGCAAUAUUACGACGA | -1.17 ± 0.12 | -0.734 ± 0.14
72 | AGCUAGCAAUAUUACGACGU | 0.0109 ± 0.068 | -0.112 ± 0.08
73 | AGCUAGCAAUAUUACGCAAG | -4.11 ± 0.47 | -2.93 ± 0.3
74 | AGCUAGCAAUAUUACGCACA | -1.51 ± 0.21 | -0.817 ± 0.2
75 | AGCUAGCAAUAUUACGCCUC | -2.07 ± 0.34 | -1.46 ± 0.37
76 | AGCUAGCAAUAUUACGCGGA | -2.29 ± 0.14 | -2.71 ± 0.18
77 | AGCUAGCAAUAUUACGCGUG | -1.6 ± 0.088 | -1.53 ± 0.12
